Where a chain is given by its changes, count along the chain named.
How the values were obtained:
[1] = biological target: T1, V5-eEF1A F98C (yeast (S. cerevisiae), UniProt P02994 1-458, F98C); assay: co-IP; co-IP of V5-eEF1A variants with Chp1 from yeast lysate (GFP-Trap/V5-Trap; 20 mM Tris pH 7.4, 150 mM NaCl, 2 mM MgCl2, 2 mM EDTA, 5% glycerol, 0.25% NP-40), 2 h at 4 °C, immunoblot, quantified; conditions: partners not purified
T1 construct: eEF1A (Tef2), yeast, with a change that represents a human EEF1A2 polymorphism; source: expressed in yeast cells, in lysate; not shown: V5, N-terminal, kept
T1 sequence (looked up): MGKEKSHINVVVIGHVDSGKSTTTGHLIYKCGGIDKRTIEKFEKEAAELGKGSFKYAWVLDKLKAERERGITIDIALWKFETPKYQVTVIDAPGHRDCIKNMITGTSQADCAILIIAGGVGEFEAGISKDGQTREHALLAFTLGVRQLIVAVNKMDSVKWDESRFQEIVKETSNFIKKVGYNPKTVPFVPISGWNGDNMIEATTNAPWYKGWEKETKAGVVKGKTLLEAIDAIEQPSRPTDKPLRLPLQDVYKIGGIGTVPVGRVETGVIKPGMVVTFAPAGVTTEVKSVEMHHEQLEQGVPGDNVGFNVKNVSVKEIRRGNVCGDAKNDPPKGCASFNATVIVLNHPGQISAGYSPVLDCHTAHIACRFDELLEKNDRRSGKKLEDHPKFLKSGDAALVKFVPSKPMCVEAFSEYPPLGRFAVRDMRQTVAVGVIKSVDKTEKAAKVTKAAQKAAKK

[2] = biological target: T2, V5-eEF1A M102V (yeast (S. cerevisiae), UniProt P02994 1-458, M102V); assay: as above; conditions: partners not purified
T2 construct: eEF1A (Tef2), yeast, with a change that represents a human EEF1A2 polymorphism; source: expressed in yeast cells, in lysate; not shown: V5, N-terminal, kept
T2 sequence (looked up): T1 sequence (looked up) with C98F, M102V

B1: Chp1 (in yeast cells expressing V5-eEF1A) (natural protein, yeast (S. cerevisiae), UniProt Q08971 1-146, looked up)
chain: MSTFNAETADNLEDIEKQFAVVAVEQAETYWKLLTSVPGSKLRLTKFDDEIYENFMERFPEYKDVERVKKFTEEELKTKEAKERWRKFFTIFEKKIEDYNFGTLLRTDASAEYGQFTTCFVVRLQFYAFEIARNKHGLNDWIVGQK
notes: Chp1 (ORF YPL225w), yeast; source: yeast cells, in lysate
With B1 the “fold increase in Chp1 binding (against WT eEF1A)” value [1] was 3 fold and the “fold increase in Chp1 binding (against WT eEF1A)” value [2] was 3 fold.

From paper PMC10869706, “Chp1 is a dedicated chaperone at the ribosome that safeguards eEF1A biogenesis” (Nature Communications, 2024)
